The results in this text go back to the DeepSol protein solubility set.

The nature of the data set: soluble on expression in E. coli; label from the status in PepcDB or PDB records.
For the sequence “MYHNNNYGYNNHRGGGGFRHNNYNNNNNNHHHHYNNLPRINETQVPQSKHTIFIRGLHGDISTEEIKEYIGEKVGKISFDFVKVAQDKSKIFVAVRFENRDEAKEFMETYSDREFMGCRCDLSWFRDIRRYCAYQRAKQVRSNSQRRRRRSDSQESSKRSASPPVRRGRSKSRSRSRSPSRSRSRSRSRSVSRSKSPASRNGRVSRHRSRSQNRSRSRSNTRSRSRSSGRSGSAHSRKSDDVDSFDDESFDEKSRVKDNEARQKRRRELSDDDRKDVRETQPKKSVKEELPQIPLPPKTEAAASPSPAPPTPKASKSASFIPPPTADDMELESPPHVSNNQYEYQQSNNTYNQIRTGASPVSVSYSVPMEVEATPKMIVRETPQPAQPPVQVNSYYTTTPIQQQQQQQQPIPPQLPTACAPVCKYLTKIFRVETRYHIPRGANFHVCVIRFSPPQPPPTTPQPAFVPRQIGRIEIVMPSSLPAPVVSAAAASASAAAHPVAMNGSAISGGSSMPDITMHPNTNKLFGHLKAFQSALLSTVKYEPPARKEEDEAGFSTLRLSSLATEDDSADEEKAMVRELKLAKLNDEQMMRFHIKKKQLESAFRNDCETYAVVTRALLAKDESLQFGLKMALLENMEDLYKKMMQRVDDQLDALLVMA”, the “soluble on expression in E. coli” value is given as “not soluble”.
Next, “MGSDKIHHHHHHMLNFYPGPSKLHANIDLHLQQAITSGILSMNHRSMDFMQLYQQVQENFEQFYDLPKDYKVYFTSAATECWTILAQSFPNRSFLHLYNGSFGKKWMEVSKQLEVEHTSVVFDIHGELPVTEINPDTAAEIVCTTLVETSNGTFLSKDIQAAVRETFSDALIAVDATSALAGLSVTWEHADIWFASVQKCFGLPSGLGILILSPTAQHTVEFRSKDIHYNSLKRIVENGASFQTTHTPNILGIYLLAQRLKEIDVTEFFNRNERMNYLYNHFSSHPSLQPLIIEKSVQSATVLTLKGDEEYIKQVKKSLKAQDIIIGSGYGVWKENTIRLANFPAHTDEDFKKLLLVI”: “not soluble”; “MTTETQADRTQQAVGRIIGSIGVVTTQTTGRHQGILTSWVSQASFTPPGIMLAIPGEFDAYGLAGQNKAFVLNLLQEGRSVRRHFDHQPLPKDGDNPFSRLEHYSTQNGCLILAEALAYLECLVQSWSNIGDHVLVYATVQAGQVLQPNGITAIRHRKSGGQYLEHHHHHH”: “not soluble”; “LSLQSEIDSLCAVSHELLHLGLDGEPIYSDRFRQLNTDVYHRCEHLFGSHGRTLEEEASLCIALLTGYNATIYNHGDKEDKIQSVLNRSWDLLDTLPVSLLKCRLLVACYAEVFD”: “not soluble”.
On to “HWCNIAGWPDFDTFLATMDHKHRKNIRQERAKVARSGVRIQSIHGDEATPIELKAMHHFYVNTFHQYGNAPALTLPFLTHLAKTIPRQLVLFMATLNGKLIGGSLCLRSAKTLYGRHWGGAALPGLHFETCYYQGIDYCLREGLTRFEPGAQGKHKIARG”, for which the “soluble on expression in E. coli” value is “not soluble”.
Turning to “MPDPQGGEIVYVGGTLLDLNRYELYYQFDFTAKYEITEEDTRQAEDVNALPDLSLLSIDVDYIDPGTGPDGDIEHHLEMRFPQN”, the “soluble on expression in E. coli” value is “not soluble”.
For “SLKCYTCKEPMTSASCRTITRCKPEDTACMTTLVTVEAEYPFNQSPVVTRSCSSSCVATDPDSIGAAHLIFCCFRDLCNSEL”, the “soluble on expression in E. coli” value is given as “soluble”.
In the case of “MSLENNNEIFKEKSRENFNKTADIYDESHDGKFVAPMYDEIIKRILRANPKTVLDVGCGTGNVLKILAKDENLSLYGLDLSEKMIEIAKKNLKGRAELKLGDSENMPWKSNSFDVIVCNASFHHYPNPKKVLIEMKRILKKDGTLIIGDPTAPVIYRQILNLYCKISNKGDYKLYSKKEIENIMKECGFEPFNFIHINHGSFAVNAKIREGHHHHHH” it was “soluble”; in that of “TSLKQNQLNLSTLLVNPEGPTLTQLNSVQSSERPLFLVHPIEGSTTVFHSLAAKLSVPTYGLQCTQAAPLDSIPNLAAYYIDCIKQVQPEGPYRIAGYSFGACVAFEMCSQLQAQQGPAPTHNNLFLFDGSHTYVLAYTQSYRAKMTPGCEAEAEAEALCFFIKQFLDVEHSKVLEALLPLKSLEDRVAASVDLITKSHHSLDRRELSFAAVSFYHKLRAADQYKPKAKYHGNVTLLRAKTGGTYGEDLGADYNLSQVCDGKVSVHIIEGDHRTLLEGSGLESIINIIHSS”, “soluble”; in that of “MLVLYRASIRFKLRKNKNSFDSSNYFYGGNNICIINTKWGKHSGIGGYAEIIDTLVGNFTNISSWAKIGIRDHIHTNFLICDFVYKDNDHIMPPGISSFEDYWVKIGNDVWVGTNVTILRGVEVGDGAVIAAGSVVTKSIPPYAIVGGNPAKFIKWRFPFEVREKLLEIKWWDWDDDLIKEKKDYLQNLVGFDMDKYKIEYRKRKEDLFYLEHHHHHH”, “soluble”.
Next, “SDKFLVRPDLRDLQGGGEEPAPTGGASGDLKSPDWRHLRAEGLSCDYTVLFGKAEADKIFRELEQEVEYFTGALAKVQVFGKWHSVPRKQATYGDAGLTYTFSGLTLTPKPWVPVLERVRDRVCEVTGQTFNFVLVNRYKDGCDHIGEHRDDERELAPGSPIASVSFGACRDFIFRHKDSRGKRPRRTVEVVRLQLAHGSLLMMNPPTNTHWYHSLPIRKRVLAPRVNLTFRKILPTKK”: “soluble”.
Next, “MLTWSTSATSSKPTLRGKIPNSKAAEEFLDSWDNAVFDGKSTGDPELDREASLWRDKFPHLRITGSRFESQKVTHPIPVDSLSFQKSIIQHSKSANAIREKLPKIDNFKKK”: “not soluble”; “MSLTTELKTEALPTRTQVDPKHCWDTTLMYANREEWKKDFDLCSSGKDRSPIWPEFSPSHYQIDNPESLLELLSKKFSVERKLDQLYIYAHLIHDQDITNPEGESDYQSIVYLYTLFSQEISWIQPALIALSEEKVAALLSSSVLAPYRFYLEKIFRLSPHTGTANEEKILASSFAALNVSNKAFSSLSDAEIPFGIAKDSNGEEHPLSHALASLYMQSPDQELRRTAYLAQFQRYYDYRNTFANLLNGKVQAHLFEAKARNYPSCLEASLFQHNIPTTVYINLINETKKHTSLINRYFNLKKEALNLKEFHFYDVYAPISQTTSKNYSYEEGVDLVCKSLLPLGTHYVEILRNGLLSNRWVDRYENKHKRSGAYSSGCYDSAPYILLNYTNTLYDVSVIAHEAGHSMHSYFSREAQPYHDAQYPLFLAEIASTFNEMLLMEALSKSDQSKEDKIVIITKTLDTIFATLFRQTFFAAFEYEIHSAAEQGTPLTEEFLSATYGNLQKEFYGGVVTSDSLSALEWARIPHFYYNFYVYQYATGIIAALSFAEKILTQEPGALELYLKFLKSGRSDFPLNILKKSGLDMTTSAPLDKAFAFITKKIDLLSSLLSEDEGHHHHHH”: “soluble”; “MGSDKIHHHHHHMKYVLIQATDNGILRRAECGGAVTALFKYLLDKKLVDGVLALKRGEDVYDGIPTFITNSNELVETAGSLHCAPTNFGKLIAKYLADKKIAVPAKPCDAMAIRELAKLNQINLDNVYMIGLNCGGTISPITAMKMIELFYEVNPLDVVKEEIDKGKFIIELKNGEHKAVKIEELEEKGFGRRKNCQRCEIMIPRMADLACGNWGAEKGWTFVEICSERGRKLVEDAEKDGYIKIKQPSEKAIQVREKIESIMIKLAKKFQKKHLEEEYPSLEKWKKYWNRCIKCYGCRDNCPLCFCVECSLEKDYIEEKGKIPPNPLIFQGIRLSHISQSCINCGQCEDACPMDIPLAYIFHRMQLKIRDTLGYIPGVDNSLPPLFNIER”: “not soluble”.
Turning to “MHLTREVNIMSILSAVSRVINNFSTEIKNRVVEVGSNLKKSTEEFIGEVVIKAAVNRLKQGMLNALSSSNDTTKDNGNDLSTNSPDIEDVSAPTLSSKKKTEANTTLVGSTGIMQKLLGNIGVNSEQSIEVLSKHFNGAVERFTQDVSKAANEAVCEKIKSIQPEDVVKGINSLIGNTLKVDSESGDTTLSFKLESAVQILGVILAAMGMLMFASQTKSTEQKTLEIEHLPTEEIQPPSLAIH”, the “soluble on expression in E. coli” value is reported as “not soluble”.
Next, “MGEPVILEAVRTPIGKRNGALRAYRPDALYAKVLDALLERTGIDPGLIGDVVTGCVTQVGEQGANVGRLGVLLSRLPKEVPAVSLNRMCGSSQQAVHFAAQAIAAGDVDFAIAGGVESMTRVPMFADIGGGFHTLNPELGKRYELVHQGESAERIAERYGFCREELDEWGYLSHKRAARATEEGRFSAQILPLEGLDAEGRPFLLTRDEGVRPDVDYEKMLALKPVFREDGVVTAGNSSQISDGAAALLLGDREKALALGLRPRARFLARVVVAGDPTLQLLEVIPAAKKALERAGLSLRDVDVIEVNEAFASVVLAFLRELGADPEKVNPNGGAIAHGHPLGATGAVLMTKLLYELERTGSEFGLQVMCIGHGQATATVIQRL”: “soluble”.
Next, “MTIRFDNVSYTYQKGTPYQHQAIHDVNTEFEQGKYYAIVGQTGSGKSTLIQNINALLKPTTGTVTVDDITITHKTKDKYIRPVRKRIGMVFQFPESQLFEDTVEREMIFGPKNFKMNLDEAKNYAHRLLMDLGFSRDVMSQSPFQMSGGQMRKIAIVSILAMNPDIIVVDEPTAGLDPQSKRQVMRLLKSLQTDENKAIILISHDMNEVARYADEVIVMKEGSIVSQTSPKELFKDKKKLADWHIGLPEIVQLQYDFEQKYQTKLKDIALTEEAFVSLYKEWQHEK”: “not soluble”.
Next, “MRGSHHHHHHTDPALRAMRLVQLSRHSIAFPSPEGALREPNGLLALGGDLSPARLLMAYQRGIFPWFSPGDPILWWSPDPRAVLWPESLHISRSMKRFHKRSPYRVTMNYAFGQVIEGCASDREEGTWITRGVVEAYHRLHELGHAHSIEVWREDELVGGMYGVAQGTLFCGESMFSRMENASKTALLVFCEEFIGHGGKLIDCQVLNDHTASLGACEIPRRDYLNYLNQMRLGRLPNNFWVPRCLFSPQEGLCGR”: “soluble”; “MSAASTTSTPAAAAVAPQQPESLYRVVQTLGEGAFGEVLLIVNTKNPEVAAAMKKINIANKSKDFIDNIRKEYLLQKRVSAVGHDNVIRMIGMRNDPQFYYLFLEYADGGELFDKIEPDCGMSPVFAQFYFKQLICGLKFIHDNDVVHRDIKPENLLLTGTHVLKISDFGMATLYRNKGEERLLDLSCGTIPYAAPELCAGKKYRGPPVDVWSSGIVLIAMLTGELPWDRASDASQSYMGWISNTSLDERPWKKIDVRALCMLRKIVTDKTDKRATIEQIQADPWYQHNFGQVETPNGRPLKRARNNDENITCTQQAECSAKRRHLETPNEKSTLAERQNASFSQPTKTEDLLLTQHIDMSQTNSNLLQRMVCRMTRFCVVTDIRSTYQKVARASEHAGFGVRETDDYRLLVTWREVSMMVSLYTMGDIPDKPRVMVDFRRSRGDGIQFKKMFMDVRNRMHEWICTDGNNWLANLGYVPRNPQIVNGGGVNVEHSASSINVDV”: “not soluble”; “MSLNYQMITTDDALASLCEAVRAFPAIALDTEFVRTRTYYPQLGLIQLFDGEHLALIDPLGITDWSPLKAILRDPSITKFLHAGSEDLEVFLNVFGELPQPLIDTQILAAFCGRPMSWGFASMVEEYSGVTLGKSESRTDWLARPLTERQCEYAAADVWYLLPITAKLMVETEASGWLPAALDECRLMQMRRQEVVAPEDAWRDITNAWQLRTRQLACLQLLADWRLRKARERDLAVNFVVREEHLWSVARYMPGSLGELDSLGLSGSEIRFHGKTLLALVEKAQTLPEDALPQPMLNLMDMPGYRKAFKAIKSLITDVSETHKISAELLASRRQINQLLNWHWKLKPQNNLPELISGWRGELMAEALHNLLQEYPQEGGSHHHHHH”: “soluble”.
